According to patent EP0758381B1:

Assays:
[1] = biological target: Eck receptor chimera (ectodomain of the Eck receptor fused to the cytoplasmic domain of the FGF receptor) on BAF cells; experiment: cell-based or functional assay
[2] = biological target: Elk receptor on transfected 3T3 fibroblasts; experiment: cell-based or functional assay

potency in the proliferation assay, clustered against unclustered ligand [1] [fold] | potency in the phosphorylation assay, clustered against unclustered ligand [2] [fold] | Substance
100 | – | soluble Efl-2 (EHK-1L) produced in COS cells (ligand)
– | 100 | soluble myc-tagged Efl-3 (ELK-L) (ligand)
100 | – | soluble myc-tagged Efl-1 (B61) (ligand)
